Data published in the FLAb antibody collection (doi:10.7554/elife.23156).

B1: scFv; the commonest letter at each place (parent)
chain 1: EVKLDETGGGLVQPGRPMKLSCVASGFTFSDYWMNWVRQSPEKGLEWVAQIRNKPYNYETYYSDSVKGRFTISRDDSKSSVYLQMNNLRVEDMGIYYCTGSYYGMDYWGQGTSVTVS
chain 2: DVVMTQTPLSLPVSLGDQASISCRSSQSLVHSNGNTYLRWYLQKPGQSPKVLIYKVSNRFSGVPDRFSGSGSGTDFTLKISRVEAEDLGVYFCSQSTHVPWTFGGGTKLEIK

Experiments:
fluorescein = variants of: B1; experiment: Kd (Tite-Seq); conditions: with fluorescein; format: scFv 4-4-20, heavy + light
[1] = variants of: B1; experiment: yeast surface expression (ratio to wild type); higher = more expressed; conditions: format: scFv 4-4-20, heavy + light

Question: Which Kd (fluorescein) does the source give for chain 1 EVKLDETGGGLVQPGRPMKLSCVASGFTFSDYWMNWVRQSPEKGLEWVAQIRNKPYNYETYYSDSVKGRFTISRDDSKSSVYLQMNNLRVEDMGIYYCTGSYYGMWFWGQGTSVTVS chain 2 DVVMTQTPLSLPVSLGDQASISCRSSQSLVHSNGNTYLRWYLQKPGQSPKVLIYKVSNRFSGVPDRFSGSGSGTDFTLKISRVEAEDLGVYFCSQSTHVPWTFGGGTKLEIK [chain 1 D106W Y107F] here?
Answer: ≥ 10 µM

Question: And the yeast surface expression [1]?
Answer: 0.264

Question: Which results are given for chain 1 EVKLDETGGGLVQPGRPMKLSCVASGFTFSDYWMNWVRQSPEKGLEWVAQIRNKPYNYETYYSDSVKGRFTISRDDSKSSVYLQMNNLRVEDMGIYYCTFSYYGMDYWVQGTSVTVS chain 2 DVVMTQTPLSLPVSLGDQASISCRSSQSLVHSNGNTYLRWYLQKPGQSPKVLIYKVSNRFSGVPDRFSGSGSGTDFTLKISRVEAEDLGVYFCSQSTHVPWTFGGGTKLEIK [chain 1 G100F G109V]?
Answer: Kd (fluorescein): ≥ 10 µM; yeast surface expression [1]: 0.253

Question: With chain 1 EVKLDETGGGLVQPGRPMKLSCVASGFSFSDYWMNRVRQSPEKGLEWVAQIRNKPYNYETYYSDSVKGRFTISRDDSKSSVYLQMNNLRVEDMGIYYCTGSYYGMDYWGQGTSVTVS chain 2 DVVMTQTPLSLPVSLGDQASISCRSSQSLVHSNGNTYLRWYLQKPGQSPKVLIYKVSNRFSGVPDRFSGSGSGTDFTLKISRVEAEDLGVYFCSQSTHVPWTFGGGTKLEIK [chain 1 T28S W36R] as the variant, how does the Kd (fluorescein) read?
Answer: 1.81 µM

Question: And the yeast surface expression [1]?
Answer: 0.57

Question: What does the source list for chain 1 EVKLDETGGGLVQPGRPMKLSCVASGFTFSDYWMNGVRQSPEKGLEWVAQIRNKPYNYETYYSDSVKGRFTISRDDSKSSVYLQMNNLRVEDMGIYYCTGSYYGMDYWGQGTSVTVS chain 2 DVVMTQTPLSLPVSLGDQASISCRSSQSLVHSNGNTYLRWYLQKPGQSPKVLIYKVSNRFSGVPDRFSGSGSGTDFTLKISRVEAEDLGVYFCSQSTHVPWTFGGGTKLEIK [chain 1 W36G]?
Answer: Kd (fluorescein): ≥ 10 µM; yeast surface expression [1]: 0.534

Question: With chain 1 EVKLDETGGGLVQPGRPMKLSCVASGFTFSIYWMNWVRQSPEKGLEWVAQIRNKPYNYETYYSDSVKGRFTISRDDSKSSVYLQMNNLRVEDMGIYYCTGSYYGMDYWGQGTSVTVS chain 2 DVVMTQTPLSLPVSLGDQASISCRSSQSLVHSNGNTYLRWYLQKPGQSPKVLIYKVSNRFSGVPDRFSGSGSGTDFTLKISRVEAEDLGVYFCSQSTHVPWTFGGGTKLEIK [chain 1 D31I] as the variant, how does the Kd (fluorescein) read?
Answer: ≥ 10 µM

Question: And the yeast surface expression [1]?
Answer: 0.531

Question: For chain 1 EVKLDETGGGLVQPGRPMKLSCVASGFTFSDYWMNWVRQSPEKGLEWVAQIRNKPYNYETYYSDSVKGRFTISRDDSKSSVYLQMNNLRVEDMGIYYCTGSYYGSDYWTQGTSVTVS chain 2 DVVMTQTPLSLPVSLGDQASISCRSSQSLVHSNGNTYLRWYLQKPGQSPKVLIYKVSNRFSGVPDRFSGSGSGTDFTLKISRVEAEDLGVYFCSQSTHVPWTFGGGTKLEIK [chain 1 M105S G109T], which Kd (fluorescein) is on record?
Answer: ≥ 10 µM

Question: What about the yeast surface expression [1] of the same variant?
Answer: 0.527

Question: With chain 1 EVKLDETGGGLVQPGRPMKLSCVASGFTFSDMVMNWVRQSPEKGLEWVAQIRNKPYNYETYYSDSVKGRFTISRDDSKSSVYLQMNNLRVEDMGIYYCTGSYYGMDYWGQGTSVTVS chain 2 DVVMTQTPLSLPVSLGDQASISCRSSQSLVHSNGNTYLRWYLQKPGQSPKVLIYKVSNRFSGVPDRFSGSGSGTDFTLKISRVEAEDLGVYFCSQSTHVPWTFGGGTKLEIK [chain 1 Y32M W33V] as the variant, how does the Kd (fluorescein) read?
Answer: ≥ 10 µM

Question: And the yeast surface expression [1]?
Answer: 0.941

Question: With chain 1 EVKLDETGGGLVQPGRPMKLSCVASGFTFSDYWMNWVRQSPEKGLEWVAQIRNKPYNYETYYSDSVKGRFTISRDDSKSSVYLQMNNLRVEDMGIYYCTGSYYGNDYWAQGTSVTVS chain 2 DVVMTQTPLSLPVSLGDQASISCRSSQSLVHSNGNTYLRWYLQKPGQSPKVLIYKVSNRFSGVPDRFSGSGSGTDFTLKISRVEAEDLGVYFCSQSTHVPWTFGGGTKLEIK [chain 1 M105N G109A] as the variant, how does the Kd (fluorescein) read?
Answer: ≥ 10 µM

Question: And the yeast surface expression [1]?
Answer: 0.467

Question: What does the source list for chain 1 EVKLDETGGGLVQPGRPMKLSCVASGFTFSDYWMNWVRQSPEKGLEWVAQIRNKPYNYETYYSDSVKGRFTISRDDSKSSVYLQMNNLRVEDMGIYYCTMSYYGMDGWGQGTSVTVS chain 2 DVVMTQTPLSLPVSLGDQASISCRSSQSLVHSNGNTYLRWYLQKPGQSPKVLIYKVSNRFSGVPDRFSGSGSGTDFTLKISRVEAEDLGVYFCSQSTHVPWTFGGGTKLEIK [chain 1 G100M Y107G]?
Answer: Kd (fluorescein): ≥ 10 µM; yeast surface expression [1]: 0.575

Question: For chain 1 EVKLDETGGGLVQPGRPMKLSCVASGFTFSDYWMNWVRQSPEKGLEWVAQIRNKPYNYETYYSDSVKGRFTISRDDSKSSVYLQMNNLRVEDMGIYYCTGSYLYMDYWGQGTSVTVS chain 2 DVVMTQTPLSLPVSLGDQASISCRSSQSLVHSNGNTYLRWYLQKPGQSPKVLIYKVSNRFSGVPDRFSGSGSGTDFTLKISRVEAEDLGVYFCSQSTHVPWTFGGGTKLEIK [chain 1 Y103L G104Y], which Kd (fluorescein) is on record?
Answer: ≥ 10 µM

Question: And the yeast surface expression [1]?
Answer: 0.604

Question: Which Kd (fluorescein) does the source give for chain 1 EVKLDETGGGLVQPGRPMKLSCVASGFTFYDYWHNWVRQSPEKGLEWVAQIRNKPYNYETYYSDSVKGRFTISRDDSKSSVYLQMNNLRVEDMGIYYCTGSYYGMDYWGQGTSVTVS chain 2 DVVMTQTPLSLPVSLGDQASISCRSSQSLVHSNGNTYLRWYLQKPGQSPKVLIYKVSNRFSGVPDRFSGSGSGTDFTLKISRVEAEDLGVYFCSQSTHVPWTFGGGTKLEIK [chain 1 S30Y M34H] here?
Answer: ≥ 10 µM

Question: And the yeast surface expression [1]?
Answer: 0.38

Question: With chain 1 EVKLDETGGGLVQPGRPMKLSCVASGFTFRRYWMNWVRQSPEKGLEWVAQIRNKPYNYETYYSDSVKGRFTISRDDSKSSVYLQMNNLRVEDMGIYYCTGSYYGMDYWGQGTSVTVS chain 2 DVVMTQTPLSLPVSLGDQASISCRSSQSLVHSNGNTYLRWYLQKPGQSPKVLIYKVSNRFSGVPDRFSGSGSGTDFTLKISRVEAEDLGVYFCSQSTHVPWTFGGGTKLEIK [chain 1 S30R D31R] as the variant, how does the Kd (fluorescein) read?
Answer: 0.00827 µM

Question: What about the yeast surface expression [1] of the same variant?
Answer: 0.684
